These results are taken from the supplement of paper PMC5998384.

Series [1] has as its system HeLa Kyoto. The series is described as follows: thermal stability score vs G1/S (z-score of summed log2 fold changes over temperatures); higher = more thermally stable than in G1/S.
In series [2] the test system is HeLa Kyoto. The series is described as follows: solubility change mitosis vs G1/S (difference of NP-40 vs SDS log2 ratios) (log2 ratio difference); higher = more soluble in mitosis.
Series [3] deals with HeLa Kyoto. The series can be described thus: melting temperature (median over replicates), in situ; higher = more thermally stable.
In series [4] the test system is HeLa Kyoto. The series can be described thus: solubility in G1/S (NP-40 vs SDS abundance) (log2 ratio); higher = more soluble. The conditions noted are these: cell cycle stage: G1/S.
Setting [5] is: cell cycle stage: early G1 (4.5 h after nocodazole release).
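Wherever melting temperature (median over replicates), in situ is given: HeLa Kyoto cells synchronized by double thymidine or nocodazole block, proteins quantified by TMT10plex mass spectrometry, three independent biological replicates.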
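Wherever solubility change mitosis vs G1/S (difference of NP-40 vs SDS log2 ratios) is given: synchronized HeLa Kyoto cells (double thymidine block for G1/S, nocodazole release for mitosis), protein amounts in NP-40 versus SDS lysates quantified by mass spectrometry, three biological replicates.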
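Wherever solubility in G1/S (NP-40 vs SDS abundance) is given: HeLa Kyoto cells arrested at G1/S by double thymidine block, proteins quantified by TMT10plex mass spectrometry in mild NP-40 versus SDS extracts, three biological replicates.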
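Wherever thermal stability score vs G1/S (z-score of summed log2 fold changes over temperatures) is given: synchronized HeLa Kyoto cells, proteins quantified by TMT10plex mass spectrometry, three biological replicates, mitosis taken 0.5 h after nocodazole release, G1/S directly after double thymidine block.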

Regarding “MAELDIGQHCQVEHCRQRDFLPFVCDDCSGIFCLEHRSRESHGCPEVTVINERLKTDQHTSYPCSFKDCAERELVAVICPYCEKNFCLRHRHQSDHECEKLEIPKPRMAATQKLVKDIIDSKTGETASKRWKGAKNSETAAKVALMKLKMHADGDKSLPQTERIYFQVFLPKGSKEKSKPMFFCHRWSIGKAIDFAASLARLKNDNNKFTAKKLRLCHITSGEALPLDHTLETWIAKEDCPLYNGGNIILEYLNDEEQFCKNVESYLE [ZFAND1]”, the thermal stability score is -0.0516 in the series with HeLa Kyoto [1] (setting [5]) and 1.54 with HeLa Kyoto [1] (cell cycle stage: mitosis). For the same sequence, in the series on HeLa Kyoto [2], the “solubility change mitosis (log2)” value was -0.173. Further, the results for the melting temperature with HeLa Kyoto [3] (cell cycle stage: G1/S) and in the series on HeLa Kyoto [3] (cell cycle stage: mitosis) were 50.6 °C and 49.9 °C, respectively. Moreover, the “solubility in G1/S (log2)” value in the series on HeLa Kyoto [4] was 0.496.
As for “MAELTALESLIEMGFPRGRAEKALALTGNQGIEAAMDWLMEHEDDPDVDEPLETPLGHILGREPTSSEQGGLEGSGSAAGEGKPALSEEERQEQTKRMLELVAQKQREREEREEREALERERQRRRQGQELSAARQRLQEDEMRRAAEERRREKAEELAARQRVREKIERDKAERAKKYGGSVGSQPPPVAPEPGPVPSSPSQEPPTKREYDQCRIQVRLPDGTSLTQTFRAREQLAAVRLYVELHRGEELGGGQDPVQLLSGFPRRAFSEADMERPLQELGLVPSAVLIVAKKCPS [UBXN1]”, the thermal stability score with HeLa Kyoto [1] (setting [5]) was -1.73; with HeLa Kyoto [1] (cell cycle stage: mitosis), -2.31. The “solubility change mitosis (log2)” value in the series on HeLa Kyoto [2] was 0.313. In addition, the values for the melting temperature in the series with HeLa Kyoto [3] (cell cycle stage: G1/S) and in the series with HeLa Kyoto [3] (cell cycle stage: mitosis) were 52.1 °C and 51.3 °C, respectively. Besides, the “solubility in G1/S (log2)” value in the series on HeLa Kyoto [4] amounted to 0.608.
For “MAEPFLSEYQHQPQTSNCTGAAAVQEELNPERPPGAEERVPEEDSRWQSRAFPQLGGRPGPEGEGSLESQPPPLQTQACPESSCLREGEKGQNGDDSSAGGDFPPPAEVEPTPEAELLAQPCHDSEASKLGAPAAGGEEEWGQQQRQLGKKKHRRRPSKKKRHWKPYYKLTWEEKKKFDEKQSLRASRIRAEMFAKGQPVAPYNTTQFLMDDHDQEEPDLKTGLYSKRAAAKSDDTSDDDFMEEGGEEDGGSDGMGGDGSEFLQRDFSETYERYHTESLQNMSKQELIKEYLELEKCLSRMEDENNRLRLESKRLGGDDARVRELELELDRLRAENLQLLTENELHRQQERAPLSKFGD [HEXIM1]”, the values for the thermal stability score with HeLa Kyoto [1] (setting [5]) and in the series with HeLa Kyoto [1] (cell cycle stage: mitosis) were -4.2 and -2.03, respectively. Further, in the series on HeLa Kyoto [2], the “solubility change mitosis (log2)” value turned out to be 0.123. In addition, the melting temperature was 57.6 °C in the series on HeLa Kyoto [3] (cell cycle stage: G1/S) and 55.5 °C in the series with HeLa Kyoto [3] (cell cycle stage: mitosis). Further, the “solubility in G1/S (log2)” value with HeLa Kyoto [4] worked out at 0.211.
On to “MAEPTVCSFLTKVLCAHGGRMFLKDLRGHVELSEARLRDVLQRAGPERFLLQEVETQEGLGDAEAEAAAGAVGGGGTSAWRVVAVSSVRLCARYQRGECQACDQLHFCRRHMLGKCPNRDCWSTCTLSHDIHTPVNMQVLKSHGLFGLNENQLRILLLQNDPCLLPEVCLLYNKGEALYGYCNLKDKCNKFHVCKSFVKGECKLQTCKRSHQLIHAASLKLLQDQGLNIPSVVNFQIISTYKHMKLHKMLENTDNSSPSTEHSQGLEKQGVHAAGAAEAGPLASVPAQSAKKPCPVSCEK [ZC3HAV1L]”, for which the thermal stability score was 0.166 in the series on HeLa Kyoto [1] (setting [5]) and -0.0104 in the series with HeLa Kyoto [1] (cell cycle stage: mitosis). Moreover, the “solubility change mitosis (log2)” value in the series on HeLa Kyoto [2] is -0.0672. In addition, the melting temperature in the series on HeLa Kyoto [3] (cell cycle stage: G1/S) and with HeLa Kyoto [3] (cell cycle stage: mitosis) was 50.2 °C throughout. In addition, the “solubility in G1/S (log2)” value with HeLa Kyoto [4] turned out to be 0.135.
As for “MAEQATKSVLFVCLGNICRSPIAEAVFRKLVTDQNISENWRVDSAATSGYEIGNPPDYRGQSCMKRHGIPMSHVARQITKEDFATFDYILCMDESNLRDLNRKSNQVKTCKAKIELLGSYDPQKQLIIEDPYYGNDSDFETVYQQCVRCCRAFLEKAH [ACP1]”, the thermal stability score in the series with HeLa Kyoto [1] (setting [5]) was -0.241; in the series with HeLa Kyoto [1] (cell cycle stage: mitosis), -0.21. Moreover, the “solubility change mitosis (log2)” value in the series with HeLa Kyoto [2] was -0.0468. In addition, the melting temperature in the series with HeLa Kyoto [3] (cell cycle stage: G1/S) came to 50.2 °C; with HeLa Kyoto [3] (cell cycle stage: mitosis), 51 °C. Also, the “solubility in G1/S (log2)” value in the series with HeLa Kyoto [4] is 0.178.
“MAEQLSPGKAVDQVCTFLFKKPGRKGAAGRRKRPACDPEPGESGSSSDEGCTVVRPEKKRVTHNPMIQKTRDSGKQKAAYGDLSSEEEEENEPESLGVVYKSTRSAKPVGPEDMGATAVYELDTEKERDAQAIFERSQKIQEELRGKEDDKIYRGINNYQKYMKPKDTSMGNASSGMVRKGPIRAPEHLRATVRWDYQPDICKDYKETGFCGFGDSCKFLHDRSDYKHGWQIERELDEGRYGVYEDENYEVGSDDEEIPFKCFICRQSFQNPVVTKCRHYFCESCALQHFRTTPRCYVCDQQTNGVFNPAKELIAKLEKHRATGEGGASDLPEDPDEDAIPIT [RNF113A]”: the thermal stability score was -3.12 in the series on HeLa Kyoto [1] (setting [5]) and -4.15 in the series with HeLa Kyoto [1] (cell cycle stage: mitosis). Also, the “solubility change mitosis (log2)” value in the series on HeLa Kyoto [2] came out at 0.0489. The figures for the melting temperature with HeLa Kyoto [3] (cell cycle stage: G1/S) and in the series with HeLa Kyoto [3] (cell cycle stage: mitosis) were 55.6 °C and 63.5 °C, respectively. In addition, the “solubility in G1/S (log2)” value in the series with HeLa Kyoto [4] worked out at 0.17.
For “MAERGGDGGESERFNPGELRMAQQQALRFRGPAPPPNAVMRGPPPLMRPPPPFGMMRGPPPPPRPPFGRPPFDPNMPPMPPPGGIPPPMGPPHLQRPPFMPPPMSSMPPPPGMMFPPGMPPVTAPGTPALPPTEEIWVENKTPDGKVYYYNARTRESAWTKPDGVKVIQQSELTPMLAAQAQVQAQAQAQAQAQAQAQAQAQAQAQAQAQAQAQAQAQAQAQAQAQAQAQAQAQAQAQAQAQVQAQVQAQVQAQAVGASTPTTSSPAPAVSTSTSSSTPSSTTSTTTTATSVAQTVSTPTTQDQTPSSAVSVATPTVSVSTPAPTATPVQTVPQPHPQTLPPAVPHSVPQPTTAIPAFPPVMVPPFRVPLPGMPIPLPGVAMMQIVSCPYVKTVATTKTGVLPGMAPPIVPMIHPQVAIAASPATLAGATAVSEWTEYKTADGKTYYYNNRTLESTWEKPQELKEKEKLEEKIKEPIKEPSEEPLPMETEEEDPKEEPIKEIKEEPKEEEMTEEEKAAQKAKPVATAPIPGTPWCVVWTGDERVFFYNPTTRLSMWDRPDDLIGRADVDKIIQEPPHKKGMEELKKLRHPTPTMLSIQKWQFSMSAIKEEQELMEEINEDEPVKAKKRKRDDNKDIDSEKEAAMEAEIKAARERAIVPLEARMKQFKDMLLERGVSAFSTWEKELHKIVFDPRYLLLNPKERKQVFDQYVKTRAEEERREKKNKIMQAKEDFKKMMEEAKFNPRATFSEFAAKHAKDSRFKAIEKMKDREALFNEFVAAARKKEKEDSKTRGEKIKSDFFELLSNHHLDSQSRWSKVKDKVESDPRYKAVDSSSMREDLFKQYIEKIAKNLDSEKEKELERQARIEASLREREREVQKARSEQTKEIDREREQHKREEAIQNFKALLSDMVRSSDVSWSDTRRTLRKDHRWESGSLLEREEKEKLFNEHIEALTKKKREHFRQLLDETSAITLTSTWKEVKKIIKEDPRCIKFSSSDRKKQREFEEYIRDKYITAKADFRTLLKETKFITYRSKKLIQESDQHLKDVEKILQNDKRYLVLDCVPEERRKLIVAYVDDLDRRGPPPPPTASEPTRRSTK [TCERG1]”, the thermal stability score is 2.7 in the series on HeLa Kyoto [1] (setting [5]) and 5.16 with HeLa Kyoto [1] (cell cycle stage: mitosis). The “solubility change mitosis (log2)” value in the series on HeLa Kyoto [2] is -0.0317. For the same sequence, the melting temperature was 48.5 °C with HeLa Kyoto [3] (cell cycle stage: G1/S) and 48.8 °C in the series with HeLa Kyoto [3] (cell cycle stage: mitosis). In addition, in the series on HeLa Kyoto [4], the “solubility in G1/S (log2)” value was 0.0535.
